The data set concerns the molecule itself. In words: SEC-SAXS.

Ends that are not written are not given here.

On to GIGDPVTCLKSGAICHPVFCPRRYKQIGTCGLPGTKCCKKP (natural protein, UniProt O15263 24-64, looked up, ends and bridges not checked; cysteine pairing not given here) [Human β-defensin 2 (HBD-2)], for which the “monomer/dimer ratio (dimer part of 70:30)” value is 30.

The values above are taken from article PMC6059731 (Science Advances, 2018).
